What was measured:
[1] = target: GIPR-SmBiT (glucose-dependent insulinotropic polypeptide receptor tagged at the C-terminus with SmBiT) (UniProt P48546); assay: split reporter
[2] = target: GLP-1R-SmBiT (glucagon-like peptide-1 receptor tagged at the C-terminus with SmBiT) (UniProt P43220); assay: split reporter
UniProt P43220, sequence (P43220 24-463): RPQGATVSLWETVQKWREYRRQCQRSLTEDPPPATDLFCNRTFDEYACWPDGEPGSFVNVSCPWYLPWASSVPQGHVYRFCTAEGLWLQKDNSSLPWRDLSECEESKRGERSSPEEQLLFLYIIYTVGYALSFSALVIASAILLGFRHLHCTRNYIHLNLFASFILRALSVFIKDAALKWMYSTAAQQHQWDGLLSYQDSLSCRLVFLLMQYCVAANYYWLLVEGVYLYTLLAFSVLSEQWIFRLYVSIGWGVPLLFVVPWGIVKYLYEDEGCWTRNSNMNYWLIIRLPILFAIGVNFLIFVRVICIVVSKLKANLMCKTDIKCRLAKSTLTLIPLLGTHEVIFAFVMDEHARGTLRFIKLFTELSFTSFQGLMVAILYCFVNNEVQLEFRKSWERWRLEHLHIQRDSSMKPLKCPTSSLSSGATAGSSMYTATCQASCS

UniProt P48546, sequence (P48546 22-466): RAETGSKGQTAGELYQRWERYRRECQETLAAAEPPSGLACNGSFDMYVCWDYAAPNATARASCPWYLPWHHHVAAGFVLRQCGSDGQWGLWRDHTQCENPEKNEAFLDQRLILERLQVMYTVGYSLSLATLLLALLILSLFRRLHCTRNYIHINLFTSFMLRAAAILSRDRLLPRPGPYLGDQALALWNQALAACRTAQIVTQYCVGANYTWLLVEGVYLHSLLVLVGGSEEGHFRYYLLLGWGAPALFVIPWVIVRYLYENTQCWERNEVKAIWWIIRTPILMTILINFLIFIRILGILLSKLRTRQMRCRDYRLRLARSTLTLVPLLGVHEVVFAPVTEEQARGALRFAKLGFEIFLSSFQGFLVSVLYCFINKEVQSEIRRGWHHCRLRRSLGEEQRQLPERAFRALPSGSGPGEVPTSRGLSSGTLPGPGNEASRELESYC

t1/2 of ligand-induced recruitment [1]: 7.1 min
t1/2 of ligand-induced recruitment [2]: 1.5 min
Substance: LgBiT-mini-Gs

Source: doi:10.1101/2020.04.26.062372
